From article PMC9174178 (Cell Reports, 2022)

Assays:
[1] = target: ZC45-CoV receptor-binding domain (RBD) (Bat SARS-like coronavirus ZC45, UniProt A0A2R3SUW7); assay: ELISA
[2] = target: HKU3-1-CoV receptor-binding domain (RBD) (Bat coronavirus HKU3-1, UniProt Q3LZX1); assay: ELISA
[3] = target: Rs4092-CoV receptor-binding domain (RBD) (Bat SARS-like coronavirus Rs4092, UniProt A0A2D1PX37); assay: ELISA
[4] = target: Rs7327-CoV receptor-binding domain (RBD) (Bat SARS-like coronavirus Rs7327, UniProt A0A2D1PXC0); assay: ELISA
[5] = target: W1V1-CoV receptor-binding domain (RBD) (Bat SARS-like coronavirus WIV1, UniProt U5WI05); assay: ELISA
[6] = target: RaTG13-CoV receptor-binding domain (RBD) (Bat coronavirus RaTG13, UniProt A0ABF7PLN6); assay: ELISA
[7] = target: Yun11-CoV receptor-binding domain (RBD) (Bat coronavirus Cp/Yunnan2011, UniProt R9QTH3); assay: ELISA
[8] = target: SHC014-CoV receptor-binding domain (RBD) (Bat SARS-like coronavirus RsSHC014, UniProt U5WLK5); assay: ELISA
[9] = target: Shaanxi2011-CoV receptor-binding domain (RBD) (Bat coronavirus Rp/Shaanxi2011, UniProt R9QTA0); assay: ELISA
[10] = target: Rs4081-CoV receptor-binding domain (RBD) (Bat SARS-like coronavirus Rs4081, UniProt A0A2D1PX44); assay: ELISA
[11] = target: Rf1-CoV receptor-binding domain (RBD) (Bat SARS CoV Rf1/2004, UniProt Q0QDZ0); assay: ELISA
[12] = target: YN2013-CoV receptor-binding domain (RBD) (BtRs-BetaCoV/YN2013, UniProt A0A0U1WJY8); assay: ELISA
[13] = target: pangolin17-CoV receptor-binding domain (RBD) (Pangolin coronavirus (pangolin17, …)); assay: ELISA
[14] = target: BtkY72-CoV receptor-binding domain (RBD) (Bat coronavirus BtKY72, UniProt A0A3Q8AKM0); assay: ELISA
[15] = target: Rp3-CoV receptor-binding domain (RBD) (Bat SARS-like coronavirus Rp3/2004, UniProt Q3I5J5); assay: ELISA
[16] = target: T1, SARS-CoV receptor-binding domain (RBD) (SARS-CoV (AAP13441.1), UniProt P59594); assay: SPR
[17] = target: T2, BM-4831-CoV receptor-binding domain (RBD) (Bat coronavirus BM48-31/BGR/2008); assay: SPR
[18] = target: T2, BM-4831-CoV receptor-binding domain …; assay: ELISA
[19] = target: SARS-CoV-2 receptor-binding domain (RBD) (SARS-CoV-2 (MN985325.1), UniProt P0DTC2)
[20] = target: T1, SARS-CoV receptor-binding domain (RBD)

Binder | binding result [1] | binding result [2] | binding result [3] | binding result [4] | binding result [5] | binding result [6] | binding result [7] | binding result [8] | binding result [9] | binding result [10] | binding result [11] | binding result [12] | binding result [13] | binding result [14] | binding result [15] | Kd [16] [nM] | Kd [17] [nM] | binding result [18] | binding result [19] | binding result [20]
psNb 2-31 (VHH) VHH: QVQLVESGGGLVQAGESLRLSCAASKPTFRNFAAGWFRQTPGKDREFVAVIEYDGDSAYYADSVKGRFTISRDNAKNTVYLQMNRLKPGDTAVYICAIGGNHYDPSKYYTADEYDYWGQGTQVTVSS | binds | binds | binds | binds | binds | binds | binds | binds | binds | binds | binds | binds | binds | binds | binds | 0.00396 | 3.6 | – | – | –
psNb 1-22 (VHH) VHH: HVQLVESGGGLVQPGGSLRLSCAASGRSFNSYLMGWFRQAPGKEREFVAWISGSPHDIIRYRDSVKDRFTISRDNAKNTVYLQMNSLKPVDTAVYYCAVGSLRVGSFSPDYWGQGTQVTVSS | – | – | – | – | – | – | – | – | – | – | – | – | – | – | – | – | – | binds | – | –
psNb 2-34 (VHH) VHH: HVQLVESGGGLVQAGGSLRLSCAASGRTFSRYAAGWFRQAPGKEREFVAVIEWDGDSAYYADPVKGRFTISRDNAKNTVYLQMNRLKPEDTAVYICAVGGNHYSRSKYYNLDEYDDWGQGTQVTVSS | binds | binds | binds | binds | binds | binds | binds | binds | binds | binds | binds | binds | binds | binds | binds | – | – | binds | – | –
psNb 2-45 (VHH) VHH: QVQLVESGGGLVQAGGSLRLSCTASGYDFSILAIAWYRQAPGKERELVAAISRVGSTDYADSVKGRFTISRDNTKNTVSLQMDSLKPEDTAVYYCNAGIPMTTVLSGLGFWGQGTQVTVSS | binds | binds | binds | binds | binds | binds | binds | binds | binds | binds | binds | binds | binds | binds | binds | 304 | 0.044 | – | – | –
psNb 2-65 (VHH) VHH: HVQLVESGGGLVQAGGSLRLSCAASGTISTLNAMGWYRQAPGKQRELLASISNLGTTYHADSVAGRFTISRGSAKNTVNLQMNSLKPDDTAVYYCNTRVLEGGTQIRDYWGQGTQVTVSS | – | – | – | – | – | – | – | – | – | – | – | – | – | – | – | – | – | binds | – | –
psNb 2-38 (VHH) VHH: QVQLVESGGGLVQAGGSLRLSCAAAARFSTSAMGWFRQAPGKEREFVAAISWSNTNTHYADTVKGRFTISADTAKETVDLQMNSLKPEDTAVYYCVQGGWGIRQPIIVDYWGKGTQVTVSS | – | – | – | – | – | – | – | – | – | – | – | – | – | – | – | – | – | binds | – | –
psNb 1-23 (VHH) VHH: QVQLVESGGGLVQAGGSLRLSCAASGRTDSISDMGWFRQAPGKEREFVAVVGWSGGGTDYAHSVKGRFTISRDNAKNTVYLQMNSLKPEDTAVYYCAVGSLRVGSFSVEYWGQGTQVTVSS | – | – | – | – | – | – | – | – | – | – | – | – | – | – | – | – | – | binds | – | –
1-28 (VHH) VHH: QVQLVESGGGLVQAGGSLRLSCAVSGRTVSTYGMAWFRQTPGKKRDFVATITRSEGTTFYADSVKGRFTISRDNAKNTVYLQMNSLKIEDTAVYYCAVRRDSSWGYSRDLFEYDDWGQGTQVTVSS | – | – | – | – | – | – | – | – | – | – | – | – | – | – | – | – | – | – | binds | binds
